B1: unnamed (protein)
chain: MRPPWYPLHTPSLAFPLLFLLLSLLGGGARAEGREDPQLLVRVRGGQLRGIRLKAPGGPVSAFLGIPFAEPPVGSRRFMPPEPKRPWSGVLDATTFQNVCYQNVDTLYPGFEGTEMWNPNRELSEDCLYLNVWTPYPRPASPTPVLIWIYGGGFQSGAASLDVYDGRFLAQVEGAVLVSMNYRVGTFGFLALPGSREAPGNVGLLDQRLALQWVQENIAAFGGDPMSVTLFGESAGAASVGMHILSLPSRSLFHRAVLQSGTPNGPWATVSAGEARRRATLLARLVGCPPGGAGGNDTELIACLRTRPAQDLVDHERHVLPQESIFRFSFVPVVDGDFLSDTPEALINTGDFQDLQVLVGVVKDEGSYFLVYGVPGFSKDNESLISRAQFLAGVRIGVPQASDLAAEAVVLHYTDWLHPEDPTHLRDAMSAVVGDHNVVCPVAQLAGRLAAQGARVYAYIFEHRASTLTWPLWMGVPHGYEIEFIFGLPLDPSLNYTTEERIFAQRLMKYWTNFARTGDPNDPRDSKSPQWPPYTTAAQQYVSLNLKPLEVRRGLRAQTCAFWNRFLPKLLSATDTLDEAERQWKAEFHRWSSYMVHWKNQFDHYSKQERCSDL
B2: unnamed (protein)
chain: MRPPWYPLHTPSLAFPLLFLLLSLLGGGARAEGREDPQLLVRVRGGQLRGIRLKAPGGPVSAFLGIPFAEPPVGSRRFMPPEPKRPWSGVLDATTFQNVCYQYVDTLYPGFEGTEMWNPNRELSEDCLYLNVWTPYPRPASPTPVLIWIYGGGFYSGAASLDVYDGRFLAQVEGAVLVSMNYRVGTFGFLALPGSREAPGNVGLLDQRLALQWVQENIAAFGGDPMSVTLFGESAGAASVGMHILSLPSRSLFHRAVLQSGTPNGPWATVSAGEARRRATLLARLVGCPPGGAGGNDTELIACLRTRPAQDLVDHERHVLPQESIFRFSFVPVVDGDFLSDTPEALINTGDFQDLQVLVGVVKDEGSYFLVYGVPGFSKDNESLISRAQFLAGVRIGVPQASDLAAEAVVLHYTDWLHPEDPTHLRDAMSAVVGDHNVVCPVAQLAGRLAAQGARVYAYIFEHRASTLTWPLWMGVPHGYEIEFIFGLPLDPSLNYTTEERIFAQRLMKYWTNFARTGDPNDPRDSKSPQWPPYTTAAQQYVSLNLKPLEVRRGLRAQTCAFWNRFLPKLLSATDTLDEAERQWKAEFHRWSSYMVHWKNQFDHYSKQERCSDL
B3: unnamed (protein)
chain: MRPPWYPLHTPSLAFPLLFLLLSLLGGGARAEGREDPQLLVRVRGGQLRGIRLKAPGGPVSAFLGIPFAEPPVGSRRFMPPEPKRPWSGVLDATTFQNVCYQNVNTLYPGFEGTEMWNPNRELSEDCLYLNVWTPYPRPASPTPVLIWIYGGGFQSGAASLDVYDGRFLAQVEGAVLVSMNYRVGTFGFLALPGSREAPGNVGLLDQRLALQWVQENIAAFGGDPMSVTLFGESAGAASVGMHILSLPSRSLFHRAVLQSGTPNGPWATVSAGEARRRATLLARLVGCPPGGAGGNDTELIACLRTRPAQDLVDHERHVLPQESIFRFSFVPVVDGDFLSDTPEALINTGDFQDLQVLVGVVKDEGSYFLVYGVPGFSKDNESLISRAQFLAGVRIGVPQASDLAAEAVVLHYTDWLHPEDPTHLRDAMSAVVGDHNVVCPVAQLAGRLAAQGARVYAYIFEHRASTLTWPLWMGVPHGYEIEFIFGLPLDPSLNYTTEERIFAQRLMKYWTNFARTGDPNDPRDSKSPQWPPYTTAAQQYVSLNLKPLEVRRGLRAQTCAFWNRFLPKLLSATDTLDEAERQWKAEFHRWSSYMVHWKNQFDHYSKQERCSDL
B4: unnamed (protein)
chain: MRPPWYPLHTPSLAFPLLFLLLSLLGGGARAEGREDPQLLVRVRGGQLRGIRLKAPGGPVSAFLGIPFAEPPVGSRRFMPPEPKRPWSGVLDATTFQNVCYQYVDTLYPGFEGTEMWNPNRELSEDCLYLNVWTPYPRPASPTPVLIWIYGGGFYSGAASLDVYDGRFLAQVEGAVLVSMNYRVGTFGFLALPGSREAPGNVGLLDQRLALQWVQENIAAFGGDPMSVTLFGESAGAASVGMHILSLPSRSLFHRAVLQSGTPNGPWATVSAGEARRRATLLARLVGCPPGGAGGNDTELIACLRTRPAQDLVDHEWHVLPQESIFRYSFVPVVDGDFLSDTPEALINTGDFQDLQVLVGVVKDEGSYFLVYGVPGFSKDNESLISRAQFLAGVRIGVPQASDLAAEAVVLHYTDWLHPEDPTHLRDAMSAVVGDHNVVCPVAQLAGRLAAQGARVYAYIFEHRASTLTWPLWMGVPHGYEIEFIFGLPLDPSLNYTTEERIFAQRLMKYWTNFARTGDPNDPRDSKSPQWPPYTTAAQQYVSLNLKPLEVRRGLRAQTCAFWNRFLPKLLSATDTLDEAERQWKAEFHRWSSYMVHWKNQFDHYSKQERCSDL
B5: unnamed (protein)
chain: MRPPWYPLHTPSLAFPLLFLLLSLLGGGARAEGREDPQLLVRVRGGQLRGIRLKAPGGPVSAFLGIPFAEPPVGSRRFMPPEPKRPWSGVLDATTFQNVCYQYVDTLYPGFEGTEMWNPNRELSEDCLYLNVWTPYPRPASPTPVLIWIYGGGFYSGAASLDVYDGRFLAQVEGAVLVSMNYRVGTFGFLALPGSREAPGNVGLLDQRLALQWVQENIAAFGGDPMSVTLFGESAGAASVGMHILSLPSRSLFHRAVLQSGTPNGPWATVSAGEARRRATLLARLVGCPPGGAGGNDTELIACLRTRPAQDLVDHEWHVLPQESIFRFSFVPVVDGDFLSDTPEALINTGDFQDLQVLVGVVKDEGSFFLVYGVPGFSKDNESLISRAQFLAGVRIGVPQASDLAAEAVVLHYTDWLHPEDPTHLRDAMSAVVGDHNVVCPVAQLAGRLAAQGARVYAYIFEHRASTLTWPLWMGVPHGYEIEFIFGLPLDPSLNYTTEERIFAQRLMKYWTNFARTGDPNDPRDSKSPQWPPYTTAAQQYVSLNLKPLEVRRGLRAQTCAFWNRFLPKLLSATDTLDEAERQWKAEFHRWSSYMVHWKNQFDHYSKQERCSDL
B6: unnamed (protein)
chain: MRPPWYPLHTPSLAFPLLFLLLSLLGGGARAEGREDPQLLVRVRGGQLRGIRLKAPGGPVSAFLGIPFAEPPVGSRRFMPPEPKRPWSGVLDATTFQNVCYQQVDTLYPGFEGTEMWNPNRELSEDCLYLNVWTPYPRPASPTPVLIWIYGGGFYSGAASLDVYDGRFLAQVEGAVLVSMNYRVGTFGFLALPGSREAPGNVGLLDQRLALQWVQENIAAFGGDPMSVTLFGESAGAASVGMHILSLPSRSLFHRAVLQSGTPNGPWATVSAGEARRRATLLARLVGCPPGGAGGNDTELIACLRTRPAQDLVDHERHVLPQESIFRFSFVPVVDGDFLSDTPEALINTGDFQDLQVLVGVVKDEGSYFLVYGVPGFSKDNESLISRAQFLAGVRIGVPQASDLAAEAVVLHYTDWLHPEDPTHLRDAMSAVVGDHNVVCPVAQLAGRLAAQGARVYAYIFEHRASTLTWPLWMGVPHGYEIEFIFGLPLDPSLNYTTEERIFAQRLMKYWTNFARTGDPNDPRDSKSPQWPPYTTAAQQYVSLNLKPLEVRRGLRAQTCAFWNRFLPKLLSATDTLDEAERQWKAEFHRWSSYMVHWKNQFDHYSKQERCSDL
B7: unnamed (protein)
chain: MRPPWYPLHTPSLAFPLLFLLLSLLGGGARAEGREDPQLLVRVRGGQLRGIRLKAPGGPVSAFLGIPFAEPPVGSRRFMPPEPKRPWSGVLDATTFQNVCYQYVDTLYPGFEGTEMWNPNRELSEDCLYLNVWTPYPRPASPTPVLIWIYGGGFYSGAASLDVYDGRFLAQVEGAVLVSMNYRVGTFGFLALPGSREAPGNVGLLDQRLALQWVQENIAAFGGDPMSVTLFGESAGAASVGMHILSLPSRSLFHRAVLQSGTPNGPWATVSAGEARRRATLLARLVGCPPGGAGGNDTELIACLRTRPAQDLVDHEWHVLPQESILRFSFVPVVDGDFLSDTPEALINTGDFQDLQVLVGVVKDEGSYFLVYGVPGFSKDNESLISRAQFLAGVRIGVPQASDLAAEAVVLHYTDWLHPEDPTHLRDAMSAVVGDHNVVCPVAQLAGRLAAQGARVYAYIFEHRASTLTWPLWMGVPHGYEIEFIFGLPLDPSLNYTTEERIFAQRLMKYWTNFARTGDPNDPRDSKSPQWPPYTTAAQQYVSLNLKPLEVRRGLRAQTCAFWNRFLPKLLSATDTLDEAERQWKAEFHRWSSYMVHWKNQFDHYSKQERCSDL
B8: unnamed (protein)
chain: MRPPWYPLHTPSLAFPLLFLLLSLLGGGARAEGREDPQLLVRVRGGQLRGIRLKAPGGPVSAFLGIPFAEPPVGSRRFMPPEPKRPWSGVLDATTFQNVCYQYVDTLYPGFEGTEMWNPNRELSEDCLYLNVWTPYPRPASPTPVLIWIYGGGFYSGAASLDVYDGRFLAQVEGAVLVSMNYRVGTFGFLALPGSREAPGNVGLLDQRLALQWVQENIAAFGGDPMSVTLFGESAGAASVGMHILSLPSRSLFHRAVLQSGTPNGPWATVSAGEARRRATLLARLVGCPPGGAGGNDTELIACLRTRPAQDLVDHEWHVLPQESIFRFSFVPVVDGDFLSDTPEALINTGDFQDLQVLVGVVKDEGSYGLVYGVPGFSKDNESLISRAQFLAGVRIGVPQASDLAAEAVVLHYTDWLHPEDPTHLRDAMSAVVGDHNVVCPVAQLAGRLAAQGARVYAYIFEHRASTLTWPLWMGVPHGYEIEFIFGLPLDPSLNYTTEERIFAQRLMKYWTNFARTGDPNDPRDSKSPQWPPYTTAAQQYVSLNLKPLEVRRGLRAQTCAFWNRFLPKLLSATDTLDEAERQWKAEFHRWSSYMVHWKNQFDHYSKQERCSDL
B9: unnamed (protein)
chain: MRPPWYPLHTPSLAFPLLFLLLSLLGGGARAEGREDPQLLVRVRGGQLRGIRLKAPGGPVSAFLGIPFAEPPVGSRRFMPPEPKRPWSGVLDATTFQNVCYQYVDTLYPGFEGTEMWNPNRELSEDCLYLNVWTPYPRPASPTPVLIWIYGGGFYSGAASLDVYDGRFLAQVEGAVLVSMNYRVGTFGFLALPGSREAPGNVGLLDQRLALQWVQENIAAFGGDPMSVTLFGESAGAASVGMHILSLPSRSLFHRAVLQSGTPNGPWATVSAGEARRRATLLARLVGCPPGGAGGNDTELIACLRTRPAQDLVDHEWHVLPQESIFRFSFGPVVDGDFLSDTPEALINTGDFQDLQVLVGVVKDEGSYFLVYGVPGFSKDNESLISRAQFLAGVRIGVPQASDLAAEAVVLHYTDWLHPEDPTHLRDAMSAVVGDHNVVCPVAQLAGRLAAQGARVYAYIFEHRASTLTWPLWMGVPHGYEIEFIFGLPLDPSLNYTTEERIFAQRLMKYWTNFARTGDPNDPRDSKSPQWPPYTTAAQQYVSLNLKPLEVRRGLRAQTCAFWNRFLPKLLSATDTLDEAERQWKAEFHRWSSYMVHWKNQFDHYSKQERCSDL

Substrate: Acetylcholine
Conditions: pH 7; 22 °C

| Protein | Km [µM] | kcat [s⁻¹] |
| --- | --- | --- |
| B1 | 850 | 3500 |
| B2 | 420 | 2670 |
| B3 | 6100 | 2330 |
| B4 | 58 | 650 |
| B5 | 53 | 1130 |
| B6 | 700 | 2670 |
| B7 | 49 | 733 |
| B8 | 75 | 383 |
| B9 | 50 | 2670 |
